Series [1] deals with His51 (UniProt position 1526, FHTMWHVTRGA). As to the kind of experiment: kinetics. Particulars: 37 °C, multicomponent buffer: 100 mM acetate, 100 mM MES, 100 mM HEPES, 100 mM CHES, 100 mM CAPS.
In series [2] the test system is His51. As to the kind of experiment: kinetics. To be noted: 37 °C, multicomponent buffer: 100 mM acetate, 100 mM MES, 100 mM HEPES, 100 mM CHES, 100 mM CAPS.
[3] abbreviates: enzyme-substrate complex (pKes1, from kcat).
The mark [4] stands for this setting: free enzyme (pKe1, from kcat/Km).

Regarding “Dengue virus 2 NS2B-NS3 protease, glycine-linked (NS2BH-gly-NS3pro) (Dengue virus 2 (DENV2))”, the pKa in series [1] (setting [3]) is 8.6 ± 0.4; in series [1] (setting [4]), 8.1 ± 0.3.

For “Dengue virus 2 NS2B-NS3 protease, unlinked complex (NS2BH + NS3pro) (Dengue virus 2 (DENV2))”, the pKa in series [2] (setting [3]) amounted to 8.2 ± 0.1; in series [2] (setting [4]) it was 8.7 ± 0.7.

Source of the values: paper PMC5126634.
